The target of the test is Ephrin-B2 (human, full length coding sequence, expressed on mesenchymal stem cells nucleofected with pEphrin-B2/IRES2-eGFP) (human) (UniProt P52799). Description: flow cytometry, Fc-chimera binding to Ephrin-B2-transfected MSCs against untransfected MSCs, FITC anti-human IgG1 detection. For orientation: A flow cytometer gives signals particle by particle.
Chain of UniProt P52799 (P52799 28-333): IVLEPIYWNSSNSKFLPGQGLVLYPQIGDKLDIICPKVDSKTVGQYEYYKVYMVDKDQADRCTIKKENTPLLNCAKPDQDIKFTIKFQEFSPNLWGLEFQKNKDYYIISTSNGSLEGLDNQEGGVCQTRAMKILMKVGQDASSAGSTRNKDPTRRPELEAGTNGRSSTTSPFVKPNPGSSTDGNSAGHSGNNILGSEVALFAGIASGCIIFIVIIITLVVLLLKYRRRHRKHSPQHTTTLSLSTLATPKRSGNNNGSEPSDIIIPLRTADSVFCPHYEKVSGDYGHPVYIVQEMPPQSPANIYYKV

“Eph-B4/Fc chimera protein (pre-clustered) (Fc fusion)” displayed an increase in binding to transfected MSCs compared to normal cells of 22%.
